How the values were obtained:
[1] = biological target: CD123 (human IL-3Ralpha), form in the assay not stated (human) (UniProt P26951); experiment: method not stated
[2] = biological target: CD123 (IL-3 receptor alpha chain, IL-3Ralpha) on cells (human) (UniProt P26951); experiment: cell-based or functional assay

CSL360 (chimeric antibody: 7G3 variable regions on a human IgG1 constant region)
Kd [1]: 1.06 nM | % CD107a positive NK cells, PBMC with AML sample RMH003 and CSL360 [2]: 39% | % lysis, 51Cr release ADCC, CTLEN cells, E:T 10:1 [2]: 10% | % lysis, 51Cr release ADCC, CTLEN cells, E:T 100:1 [2]: 51% | % lysis, 51Cr release ADCC, SL (AML) cells, E:T 10:1 [2]: 2.4% | % lysis, 51Cr release ADCC, SL (AML) cells, E:T 100:1 [2]: 15% | % lysis, calcein release ADCC, RBH013 (AML), E:T 10:1 [2]: 0% | % lysis, calcein release ADCC, RBH013 (AML), E:T 100:1 [2]: 0% | % lysis, calcein release ADCC, RMH003 (AML), E:T 10:1 [2]: 39.2% | % lysis, calcein release ADCC, RMH003 (AML), E:T 100:1 [2]: 82.6% | % lysis, calcein release ADCC, RMH008 (AML), E:T 10:1 [2]: 59.5% | % lysis, calcein release ADCC, RMH008 (AML), E:T 100:1 [2]: 100% | % lysis, calcein release ADCC, RMH009 (B-ALL), E:T 10:1 [2]: 0% | % lysis, calcein release ADCC, RMH009 (B-ALL), E:T 100:1 [2]: 0% | % lysis, calcein release ADCC, RMH009* (B-ALL, repeat with other PBMC), E:T 10:1 [2]: 0% | % lysis, calcein release ADCC, RMH009* (B-ALL, repeat with other PBMC), E:T 100:1 [2]: 0% | % lysis, calcein release ADCC, RMH010 (AML), E:T 10:1 [2]: 4% | % lysis, calcein release ADCC, RMH010 (AML), E:T 100:1 [2]: 0% | % of NK cells expressing CD107a, CSL360 at E:T 1:1, CTLEN-001 [2]: 6.7% | % of NK cells expressing CD107a, CSL360 at E:T 1:1, CTLEN-008 [2]: 24% | % of NK cells expressing CD107a, CSL360 at E:T 1:1, CTLEN-010 [2]: 5.7% | % of NK cells expressing CD107a, CSL360 at E:T 1:1, CTLEN-011-PBMC-1 [2]: 8.1% | % of NK cells expressing CD107a, CSL360 at E:T 1:1, CTLEN-011-PBMC-2 [2]: 10.5% | % of NK cells expressing CD107a, CSL360 at E:T 1:1, EL4hi-002 [2]: 2.9% | % of NK cells expressing CD107a, CSL360 at E:T 1:1, EL4hi-003 [2]: 15% | % of NK cells expressing CD107a, CSL360 at E:T 1:1, EL4hi-004 [2]: 16% | % of NK cells expressing CD107a, CSL360 at E:T 1:1, EL4hi-005 [2]: 21% | % of NK cells expressing CD107a, CSL360 at E:T 1:1, EL4hi-010 [2]: 34% | % of NK cells expressing CD107a, CSL360 at E:T 1:1, EL4hi-011-PBMC-1 [2]: 15.5% | % of NK cells expressing CD107a, CSL360 at E:T 1:1, EL4hi-011-PBMC-2 [2]: 23.5% | % of NK cells expressing CD107a, CSL360 at E:T 1:1, EL4hi/lo-001 [2]: 2.8% | % of NK cells expressing CD107a, CSL360 at E:T 1:1, RBH009^a (AML) [2]: 8.5% | % of NK cells expressing CD107a, CSL360 at E:T 1:1, RBH009^b (AML) [2]: 8% | % of NK cells expressing CD107a, CSL360 at E:T 1:1, RBH013^a (AML) [2]: 10% | % of NK cells expressing CD107a, CSL360 at E:T 1:1, RBH013^b (AML) [2]: 22% | % of NK cells expressing CD107a, CSL360 at E:T 1:1, RMH003^a (AML) [2]: 30% | % of NK cells expressing CD107a, CSL360 at E:T 1:1, RMH003^b (AML) [2]: 33% | % of NK cells expressing CD107a, CSL360 at E:T 1:1, RMH003^c (AML) [2]: 38% | % of NK cells expressing CD107a, CSL360 at E:T 1:1, RMH007 (B-ALL) [2]: 16.4% | % of NK cells expressing CD107a, CSL360 at E:T 1:1, RMH008^a (AML) [2]: 9% | % of NK cells expressing CD107a, CSL360 at E:T 1:1, RMH008^b (AML) [2]: 16% | % of NK cells expressing CD107a, CSL360 at E:T 1:1, RMH008^c (AML) [2]: 8.7% | % of NK cells expressing CD107a, CSL360 at E:T 1:1, RMH009^a (B-ALL) [2]: 3% | % of NK cells expressing CD107a, CSL360 at E:T 1:1, RMH009^b (B-ALL) [2]: 1.7% | % of NK cells expressing CD107a, CSL360 at E:T 1:1, RMH009^c (B-ALL) [2]: 7.4% | % of NK cells expressing CD107a, CSL360 at E:T 1:1, RMH010^a (AML) [2]: 14% | % of NK cells expressing CD107a, CSL360 at E:T 1:1, RMH010^b (AML) [2]: 25.5% | % of NK cells expressing CD107a, CSL360 at E:T 1:1, RMH011 (AML) [2]: 6.6% | % of NK cells expressing CD107a, CSL360 at E:T 1:1, TF-1 (GM-CSF) [2]: 0.7% | % of NK cells expressing CD107a, CSL360 at E:T 1:1, TF-1 (IL-3) [2]: 1.45% | IC50, IL-3-dependent TF-1 cell proliferation [2]: 5 nM
